Read-outs that look alike come from different tables or passages of the source.
Experiments:
SH3 domain of NOXA1 = settings: GST pull-downs; cited from earlier work
From the text: To gain further insight into the molecular basis of complex formation between these two proteins we measured binding of the human and mouse NOXA1-SH3 ...

NOXA1 = settings: COS cells; cited from earlier work
p67^phox = settings: cited from earlier work
From the text: The phagocytic oxidase is still the best characterized member of this protein family and consists of a heterodimeric flavocytochrome (containing NOX2 and p22^phox) that makes up the catalytic core of the enzyme plus the cytosolic regulatory subunits p40^phox, p47^phox and p67^phox and the small GTPase Rac, [16]–[18]. Because excessive ROS production is cytotoxic and can induce a number of pathological processes, complicated regulatory mechanisms have evolved that tightly control the activity of the phagocytic oxidase. […] To gain further insight into the molecular basis of complex formation between these two proteins we measured binding of the human and mouse NOXA1-SH3 ... || In the phagocytic oxidase the p47^phox-p67^phox interaction is unusually strong (Kd of 20 nM), [26], due to the presence of two protein interfaces: contacts are made via the conserved PxxPxR motif (at amino acids 363–368), but also via an additional surface composed of residues 369–390 of p47^phox, which fold into a helix-turn-helix (HTH) motif and pack against β-sheets 2, 3 and 4 of SH3B p67^phox. Removal of this additional binding motif reduces the affinity for p67^phox to 20 µM.

murine p22^phoxC = assay: ITC, binding to mouse p22phox cytoplasmic domain
Description: Complex formation between NOXO1, NOXA1 and p22^phox fragments or peptides were measured by isothermal titration calorimetry using a MicroCal VP-ITC calorimeter (MicroCal Inc., Northampton, USA). All proteins were dialysed against ITC buffer (150 mM NaCl, 1 mM DTT and 50 mM HEPES, pH 7.4) and performed at 18°C. All peptides were dissolved in ITC buffer. Typically, 20–40 µM of protein in the cell was titrated by stepwise injections of a total of 200–300 µM of the ligand. Heats of dilution were determined by titrating protein or peptide into ITC buffer and subtracted from the raw ITC data prior to analysis with the software, Origin version 7.0, assuming a single-site binding model. Data were averaged over three to five experiments.

B1: NOXO1: NOX organizing protein 1 (protein, UniProt Q8NFA2 1-376, looked up)
NADPH oxidase organizer 1: MAGPRYPVSVQGAALVQIKRLQTFAFSVRWSDGSDTFVRRSWDEFRQLKKTLKETFPVEAGLLRRSDRVLPKLLGQASLDAPLLGRVGRTSRGLARLQLLETYSRRLLATAERVARSPTITGFFAPQPLDLEPALPPGSRVILPTPEEQPLSRAAGRLSIHSLEAQSLRCLQPFCTQDTRDRPFQAQAQESLDVLLRHPSGWWLVENEDRQTAWFPAPYLEEAAPGQGREGGPSLGSSGPQFCASRAYESSRADELSVPAGARVRVLETSDRGWWLCRYGDRAGLLPAVLLRPEGLGALLSGTGFRGGDDPAGEARGFPEPSQATAPPPTVPTRPSPGAIQSRCCTVTRRALERRPRRQGRPRGCVDSVPHPTTEQ
Question: For B1, which “binding to the SH3 domain of NOXA1” value (SH3 domain of NOXA1) is on record?
Answer: failed to bind the SH3 domain of NOXA1

Question: What about the “co-immunoprecipitation of NOXO1 and NOXA1” value (NOXA1) of the same molecule?
Answer: both proteins could be co-immunopricipitated from COS cells

B2: p47^phox: cytosolic regulatory subunit of the phagocytic NADPH oxidase (protein, UniProt P14598 1-390, looked up)
Neutrophil cytosol factor 1: MGDTFIRHIALLGFEKRFVPSQHYVYMFLVKWQDLSEKVVYRRFTEIYEFHKTLKEMFPIEAGAINPENRIIPHLPAPKWFDGQRAAENRQGTLTEYCSTLMSLPTKISRCPHLLDFFKVRPDDLKLPTDNQTKKPETYLMPKDGKSTATDITGPIILQTYRAIANYEKTSGSEMALSTGDVVEVVEKSESGWWFCQMKAKRGWIPASFLEPLDSPDETEDPEPNYAGEPYVAIKAYTAVEGDEVSLLEGEAVEVIHKLLDGWWVIRKDDVTGYFPSMYLQKSGQDVSQAQRQIKRGAPPRRSSIRNAHSIHQRSRKRLSQDAYRRNSVRFLQQRRRQARPGPQSPGSPLEEERQTQRSKPQPAVPPRPSADLILNRCSESTKRKLASAV
Question: What does the source list for B2?
Answer: Kd (p67^phox; additional binding motif (residues 369–390 of p47^phox) removed, ref [25], [26], read-out: affinity for p67^phox after removal of additional binding motif): 20000 nM; Kd (p67^phox; interaction with C-terminal SH3 domain of p67^phox, ref [25]–[27], read-out: affinity for p67^phox): 20 nM

B3: Mouse NOXO1 SH3AB–E: tandem SH3 domains plus the C-terminal portion of NOXO1 (mouse) (protein)
chain: QSIPCVQPFHTLDIRDRPFHTKAQEILDILLRHPSGWWLVENKDQQVAWFPAPYLEEVATCQGQESGLALQGSGRQFCTTQAYEGSRSDELSVPSGARVHVLETSDRGWWLCRYNGRTGLLPAMSLQPEGLGSLLGRPGFPDSAGADKVAEDRTIPPVVPTRPCMSAIQSRCCSITRRALGQEQGTRVPR
modifications: left off: GST, end not stated, cleaved
Question: Which Kd (murine p22^phoxC; ITC, 18°C, 150 mM NaCl, 1 mM DTT, 50 mM HEPES, pH 7.4, mouse p22^phoxC in syringe, NOXO1 construct in cell, averaged over three to five experiments, NB = no binding) does the source give for B3 here?
Answer: 780 ± 60 nM

Question: And the ΔH (murine p22^phoxC; ITC, 18°C, pH 7.4, mouse p22^phoxC in syringe, NB = no binding)?
Answer: -7.1 ± 0.05 kcal/mol

Question: What about the “fold weakening of binding to p22^phox” value (murine p22^phoxC; mouse SH3AB–E in comparison to the tandem SH3 domains) of the same molecule?
Answer: around 10 -fold

From PMC2864300, “Regulation of NOXO1 Activity through Reversible Interactions with p22^phox and NOXA1” (PLoS ONE, 2010)
